The assay deals with E1B55K protein (adenovirus early region 1B-55 kDa) (adenovirus type 5) (UniProt P03243). Briefly: cell-based or functional assay.
UniProt P03243, sequence (P03243 whole entry): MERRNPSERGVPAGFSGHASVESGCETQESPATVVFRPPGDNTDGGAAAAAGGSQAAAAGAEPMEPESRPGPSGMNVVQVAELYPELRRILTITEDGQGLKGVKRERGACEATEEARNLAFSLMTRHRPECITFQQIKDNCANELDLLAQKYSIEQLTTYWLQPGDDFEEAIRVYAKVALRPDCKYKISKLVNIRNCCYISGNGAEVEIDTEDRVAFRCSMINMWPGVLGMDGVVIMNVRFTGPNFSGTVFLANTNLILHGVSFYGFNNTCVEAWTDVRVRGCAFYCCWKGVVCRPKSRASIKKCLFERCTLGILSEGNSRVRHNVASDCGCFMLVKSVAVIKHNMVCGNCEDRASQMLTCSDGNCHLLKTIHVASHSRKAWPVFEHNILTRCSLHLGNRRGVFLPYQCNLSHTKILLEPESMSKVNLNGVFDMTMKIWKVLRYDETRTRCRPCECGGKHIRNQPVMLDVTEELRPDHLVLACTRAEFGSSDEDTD

On to E4orf6 protein (adenovirus), for which the luminescence intensity due to luciferase activity (pGL2-p53 promoter, Dual-Luciferase Reporter Assay) in the MSC-TERT-tetoneE1B55K cell line with doxycycline; 4-fold increase with E1B55K alone is less than 1.5 fold.

Values taken from patent publication US20230210927A1.
